Results from the supplement of paper PMC12042874.
± gives the uncertainty stated by the source.

Experiment: amyloid nucleation score (Sup35N fusion, yeast selection) (log enrichment); library NNK1; higher = more nucleation; inactive = no reads after selection
In short: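 On medium lacking adenine and uracil, psi-negative yeast expressing peptides of 20 random codons fused to Sup35N were grown 7 days at 30°C after a 24-hour induction with 100 μM copper sulfate. Illumina sequencing of input and output plasmid inserts gave the reads, and sequences under 100 input reads were excluded. The nucleation score is the DiMSum log enrichment of output over input reads, centred on the mode score of non-aggregating sequences.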

Row | Substance | amyloid nucleation score
1 | DVYVSCGYVSQMGPHAEWDG | 0.102 ± 0.54
2 | DWDSALPSLNFDSETPFYKS | -0.649 ± 0.48
3 | DWLFVGGGR | 0.131 ± 0.56
4 | DWMNYVWTVTRIGSYSMVGI | 1 ± 0.68
5 | DWPFQYDVKSRLVILLWFVR | 0.086 ± 1.4
6 | DWQSVRKFLRSVVIRMVSLV | -0.399 ± 0.24
7 | DWRLNLVYKMSA | 0.734 ± 0.75
8 | DWVLTGGRIWK | -0.803 ± 0.54
9 | DWVVSCAYGFSSARNGGVCL | -0.039 ± 0.39
10 | DYFIVGTSVGGDSVTLDNQM | 0.042 ± 0.34
11 | DYGNTVNYSSGEDVHWL | -0.592 ± 1.7
12 | DYLLFSVQGNYESWYNGCKF | -2.05 ± 2.4
13 | DYSCARYEPGNMVLLC | -0.813 ± 1.5
14 | DYTRC | 0.391 ± 0.97
15 | EAGHSIFNGNWRGID | -0.536 ± 1.2
16 | EAIIEWWFHDSLASHSCTEV | 0.58 ± 1.2
17 | EALCSTSEGILHKEWF | 0.178 ± 0.28
18 | ECDSAFRSQGGGLACLFRMK | -0.171 ± 0.42
19 | ECIIYPIVMHVFVQNMM | 1.56 ± 0.28
20 | EDALRIFRKETDPDL | 0.681 ± 0.29
21 | EDCIMGNWNLCSKGSSGF | 0.374 ± 0.3
22 | EDHVVYQSADRFLRNCNWEY | 0.266 ± 0.43

Row | Substance | amyloid nucleation score
23 | EDLRVTGAKGYGCAECRACV | -0.186 ± 1.9
24 | EDMWKTCTAV | 0.244 ± 0.37
25 | EDSLFRSVLILMSVMFIQVD | 1.05 ± 0.38
26 | EDSSTSLLVGMELKRLTVSF | 0.258 ± 0.35
27 | EDTSMELWVSAGIRGGLPLV | -1.13 ± 0.94
28 | EDTWVLLSHYHFNSMLSLLM | 0.161 ± 0.26
29 | EFDTQSCQVDTVAVYIEPSL | 0.793 ± 0.65
30 | EFEPLSFQLVVELMRKFL | 1.52 ± 0.19
31 | EFGFVWVKLCNWGISLLQVN | inactive
32 | EFKLDNFQIVGYLLLTRRLI | 0.222 ± 0.32
33 | EFKLIDLFLLYWLSREHNQF | 0.391 ± 0.42
34 | EFTVPRWTPTGHTSGSLEWV | 0.22 ± 0.41
35 | EFWGVSLLVFVFCELIGIFC | -0.479 ± 0.38
36 | EGACVKSRVWDRINVTGRSR | 1.25 ± 0.68
37 | EGNMNEWTCLSCRSRAEEAR | -0.255 ± 0.9
38 | EGSIFCMRNCRTIWCSEE | -0.359 ± 0.33
39 | EGYPTMSMNSRS | 0.716 ± 0.44
40 | EHGNVACRWDTHISLVWCHF | 7.304 ± 0.057
41 | EHTRKGGSCNMLQRQPFCCT | 0.487 ± 0.52
42 | EIASLTRCYRSYRIVSWLRG | 0.341 ± 0.37
43 | EIHGCGCPLSKDGGGAFMWA | 1.22 ± 0.63
44 | EINCHSSMGFMRWPPRSGNG | -0.962 ± 1

Row | Substance | amyloid nucleation score
45 | EIQGPVRT | -0.233 ± 0.59
46 | EIRLNYMGFGPKCT | 0.735 ± 0.27
47 | EISQNTL | -0.672 ± 0.32
48 | EISVKECGGSLDYNANLRDR | inactive
49 | EITVAVSDYGVGSTWSG | 0.381 ± 0.84
50 | EITWCF | 0.485 ± 0.72
51 | EIWWYKVERAVLTVFREDCL | inactive
52 | EKLSRAVYPRASIRVVCMLF | -0.204 ± 0.34
53 | EKTYSCHECFFIWPRSY | -1.09 ± 0.75
54 | EKVGLTCQRGIVLVDNIFMQ | 6.986 ± 0.045
55 | EKYDGCIFEEKQMIAGAHGM | 1.15 ± 0.88
56 | ELFAFCMVPYYTRNMLWLVG | 0.584 ± 0.97
57 | ELGLSINFQIANFAACQGYI | 1.99 ± 0.24
58 | ELGTVFGLTYYTMTDYVPMT | 0.483 ± 0.22
59 | ELGYSTHCIMS | -0.735 ± 0.66
60 | ELKQIKVGRSLWRMVRRMGD | 1.37 ± 0.36
61 | ELRCLQVINGLASLSASVWW | 0.067 ± 0.64
62 | ELRYCEFTCSISWA | 0.744 ± 0.36
63 | ELSMCYYWRKSYIQSLGIRW | 0.733 ± 0.27
64 | ELVKFIVRADNDSWVGRASV | 0.267 ± 0.93
65 | ELYSDHIMTWM | 0.69 ± 0.36
66 | EMSIILGIERRNHCVPAMVS | -0.552 ± 1.9

Row | Substance | amyloid nucleation score
67 | EMVLLNATFYYAYCHSNRLR | 0.227 ± 0.27
68 | EMYCVYSFRSYFVYGLSLGS | -0.269 ± 0.36
69 | ENARHRCDQ | 0.571 ± 0.38
70 | ENFPPAQ | -0.691 ± 0.5
71 | ENIPARRLKCPFNTP | -0.511 ± 1.2
72 | ENITPPLYNDDYRYQ | 0.305 ± 0.58
73 | ENLRHTLHKFITI | 0.262 ± 0.62
74 | ENRTSNFPYKVR | 0.421 ± 0.26
75 | ENWATFEEYPT | 0.243 ± 0.3
76 | ENYTCRTWAPLSGPRIWVGS | 0.661 ± 0.77
77 | EPCCDVRVKGLYMFEYYVVC | 0.185 ± 1.1
78 | EPCMWKVILYCEYVSLVFVK | -0.974 ± 1.9
79 | EQLACQNVVSGCQSA | 0.277 ± 0.97
80 | ERAQYMSRTVRRVSFKSFFC | 3.55 ± 0.13
81 | ERLGMWDSRMVQLWDSFCIE | 0.363 ± 0.48
82 | ERPTWVGGDGSSGLVVGSDL | -0.22 ± 0.81
83 | ERSARGGHPMLAFYMTIPTP | -0.067 ± 1.2
84 | ESIFLRRTVALHRKVCLIDW | 0.783 ± 0.36
85 | ESMLSSIRGLHNG | -0.851 ± 1.7
